{"source": "paper PMC2840190", "key": {"[1]": {"biological_target": "gp120-A prebound to sCD4 (HIV-1 (A subtype, isolate 92UG031) | human)", "assay": "ITC"}, "[2]": {"biological_target": "gp120-B prebound to sCD4 (HIV-1 (B subtype, isolate YU2) | human) (UniProt P35961)", "sequence (P35961 whole entry, looked up)": "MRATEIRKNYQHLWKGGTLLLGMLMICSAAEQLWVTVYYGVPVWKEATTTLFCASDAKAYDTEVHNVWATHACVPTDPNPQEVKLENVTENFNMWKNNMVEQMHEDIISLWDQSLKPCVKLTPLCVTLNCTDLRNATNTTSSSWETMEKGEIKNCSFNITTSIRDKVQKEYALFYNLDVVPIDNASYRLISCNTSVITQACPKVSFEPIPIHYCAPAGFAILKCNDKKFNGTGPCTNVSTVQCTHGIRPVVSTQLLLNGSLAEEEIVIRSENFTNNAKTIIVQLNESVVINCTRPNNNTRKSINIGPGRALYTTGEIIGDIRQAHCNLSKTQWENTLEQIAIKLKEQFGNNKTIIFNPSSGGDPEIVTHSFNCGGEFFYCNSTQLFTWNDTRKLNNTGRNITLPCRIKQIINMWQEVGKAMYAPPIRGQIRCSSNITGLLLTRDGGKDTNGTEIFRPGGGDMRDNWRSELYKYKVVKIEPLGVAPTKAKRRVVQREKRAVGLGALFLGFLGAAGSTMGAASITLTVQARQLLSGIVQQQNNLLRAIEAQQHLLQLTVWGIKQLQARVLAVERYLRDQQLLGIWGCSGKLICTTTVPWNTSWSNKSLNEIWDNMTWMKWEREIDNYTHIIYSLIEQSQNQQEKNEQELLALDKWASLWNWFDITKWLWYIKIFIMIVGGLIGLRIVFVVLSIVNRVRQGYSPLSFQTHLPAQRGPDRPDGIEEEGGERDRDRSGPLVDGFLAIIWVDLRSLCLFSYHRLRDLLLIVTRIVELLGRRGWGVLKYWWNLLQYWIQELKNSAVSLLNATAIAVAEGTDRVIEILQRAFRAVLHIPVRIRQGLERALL", "assay": "ITC"}}}
{"substance": "Monoclonal antibody 17b", "values": [{"measurement": "Kd", "setting": "[1]", "result": 12, "unit": "nM"}, {"measurement": "dH", "setting": "[2]", "result": -11.1, "unit": "kcal/mol"}]}
